Experimental data reported in patent CN111138537A (REYOUNG (SUZHOU) BIOPHARMACEUTICAL CO LTD, dated 2020).

Target: T1, 人血清白蛋白 (human, UniProt P02768 25-609)
T1 construct: also called HSA; human serum albumin
Assay: SPR (Biacore T200), HSA amine-coupled to CM5 chip, NB22 as analyte

B1: 单域抗体NB22 (VHH)
VHH: QVQLQESGGGSVQAGGSLRLSCAASAYTYSTTCMAWFRQAPGKEREKVATITTGGTYPYYADSVKGRFTISQDNAKNTVYLQMNSLKPEDTAMYYCAADASWGCRLSGSWSTVYNYWGQGTQVTVSS
notes: Camel (Bactrian) VHH from a phage display library; expressed in E. coli periplasm with a C-terminal 6x His tag and nickel-purified; also called 抗人血清白蛋白单域抗体
Kd: 0.683 nM
